This test deals with mNG-BCR-ABL (biotinylated Avitag-linker-mNeon Green-linker-p210 BCR-ABL, full length) (human) (UniProt P00519). The test can be described thus: single-molecule TIRF pull-down.

For “mNG-BCR-ABL (biotinylated Avitag-linker-mNeon Green-linker-p210 BCR-ABL, full length) (from UniProt P00519-1 28-1130)”, the percent dimeric is 55%, the percent monomeric came to 40%, the percent tetramer amounted to 5% and the stoichiometry N was determined as 2.

The values above are taken from publication doi:10.1101/2024.10.02.616342.
